Measured values published in US20250376509A1 (Janssen / Centocor, published 2025).

Molecular target: T1, CALRins5 (Type 2 mutant calreticulin) on ELF-153 MPL CALRins5 cells (human, UniProt P27797 18-417)
T1 sequence (looked up): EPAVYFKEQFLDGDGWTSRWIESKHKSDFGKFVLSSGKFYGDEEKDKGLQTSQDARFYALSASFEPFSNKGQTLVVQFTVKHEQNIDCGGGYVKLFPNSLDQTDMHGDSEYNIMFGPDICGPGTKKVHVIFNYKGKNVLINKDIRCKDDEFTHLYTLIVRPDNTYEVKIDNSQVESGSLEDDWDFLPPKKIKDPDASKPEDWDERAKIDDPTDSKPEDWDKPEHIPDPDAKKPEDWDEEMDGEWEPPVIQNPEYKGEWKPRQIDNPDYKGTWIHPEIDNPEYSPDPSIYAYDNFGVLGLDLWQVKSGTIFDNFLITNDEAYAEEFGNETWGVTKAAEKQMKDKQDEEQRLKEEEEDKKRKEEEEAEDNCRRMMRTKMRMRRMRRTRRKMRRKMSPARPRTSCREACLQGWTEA
Test: cell-based or functional assay

B1: C3CRB73, a CALRmut x CD3 bispecific antibody (bispecific antibody, human IgG1, kappa, L234A L235A)
heavy: EVQLLESGGGLVQPGGSLRLSCAVSGIDLSNNAISWVRQAPGKGLEYVGVIGNTGDTYYADSAKGRFTISRDSSKTTLYLQMNSLRAEDTAVYFCVRGPPSYSSSVKNIWGQGTLVTVSSASTKGPSVFPLAPSSKSTSGGTAALGCLVKDYFPEPVTVSWNSGALTSGVHTFPAVLQSSGLYSLSSVVTVPSSSLGTQTYICNVNHKPSNTKVDKKVEPKSCDKTHTCPPCPAPEAAGGPSVFLFPPKPKDTLMISRTPEVTCVVVSVSHEDPEVKFNWYVDGVEVHNAKTKPREEQYNSTYRVVSVLTVLHQDWLNGKEYKCKVSNKALPAPIEKTISKAKGQPREPQVYTLPPSREEMTKNQVSLSCAVKGFYPSDIAVEWESNGQPENNYKTTPPVLDSDGSFFLVSKLTVDKSRWQQGNVFSCSVMHEALHNRFTQKSLSLSPGK
light: DIQMTQSPSSVSASVGDRVTITCQSSQSVYNNNWLSWLQQKPGKAPKRLIYDASKLESGVPSRFSGSGSGTDFTLTISSVQPEDAATYYCAGGFTGNVYTFGGGTKVEIKRTVAAPSVFIFPPSDEQLKSGTASVVCLLNNFYPREAKVQWKVDNALQSGNSQESVTEQDSKDSTYSLSSTLTLSKADYEKHKVYACEVTHQGLSSPVTKSFNRGEC
chain: DIQMTQSPSSLSASVGDRVTITCRARQSIGTAIHWYQQKPGCAPKLLIKYASESISGVPSRFSGSGSGTDFTLTISSLQPEDFATYYCQQSGSWPYTFGQGTKLEIKGGGSGGSGGCPPCGGSGGEVQLVESGGGLVKPGGSLRLSCAASGFTFSRYNMNWVRQAPGKGLEWVSSISTSSNYIYYADSVKGRFTFSRDNAKNSLDLQMSGLRAEDTAIYYCTRGWGPFDYWGCGTLVTVSSEPKSSDKTHTCPPCPAPEAAGGPSVFLFPPKPKDTLMISRTPEVTCVVVSVSHEDPEVKFNWYVDGVEVHNAKTKPREEQYNSTYRVVSVLTVLHQDWLNGKEYKCKVSNKALPAPIEKTISKAKGQPREPQVYTLPPSREEMTKNQVSLWCLVKGFYPSDIAVEWESNGQPENNYKTTPPVLDSDGSFFLYSKLTVDKSRWQQGNVFSCSVMHEALHNHYTQKSLSLSPGK
median EC50 of ELF-153 MPL CALRins5 cells cytotoxicity using patient whole blood: 0.64 nM
